Experimental data: publication PMC7688132, “Preparation and characterization of monoclonal antibodies recognizing two CD4 isotypes of Microminipigs” (PLoS ONE, 2020)

How the values were obtained:
[1] = molecular target: T1, CD4.B, endogenous in CD4.B (+/+) Microminipig cells (Sus scrofa, Microminipig, allele CD4.B …, UniProt A0A0M4UHP2, strain); experiment: flow cytometry on cells; CD4.A (+/+) and CD4.B (+/+) swine PBMCs stained with the purified mAb and anti-mouse IgG-APC (b1D7) or anti-mouse IgG2a-FITC (x1E10); lymphocyte gate; isotype control; settings: one partner purified
T1 construct: CD4 allele CD4.B of the Microminipig, as in animals genotyped CD4.B (+/+) by PCR-RFLP; allele mRNA LC064060; also called CD4.B (+/+) swine PBMCs; CD4.B (+/+) spleen; source: endogenous, CD4.B (+/+) Microminipig PBMCs and spleen tissue sections

[2] = molecular target: T2, CD4.A, endogenous in CD4.A (+/+) Microminipig cells (Sus scrofa, Microminipig, allele CD4.A …, UniProt A0A0M3VH80, strain); experiment: as above; settings: one partner purified
T2 construct: CD4 allele CD4.A of the Microminipig, as in animals genotyped CD4.A (+/+) by PCR-RFLP; allele mRNA LC064059; also called CD4.A (+/+) swine PBMCs; CD4.A (+/+) spleen; source: endogenous, CD4.A (+/+) Microminipig PBMCs and spleen tissue sections

[3] = molecular target: T3, swine (Microminipig) CD4.B expressed on transfected HEK293 cells (Sus scrofa, Microminipig, allele CD4.B, UniProt A0A0M4UHP2, strain); experiment: flow cytometry on cells; HEK293 transfected with CD4.A or CD4.B (mVenus co-expressed) stained with hybridoma clone supernatant, then anti-mouse IgG-APC; settings: partners not purified
T3 construct: CD4 allele CD4.B of the Microminipig; five replacements between the alleles are printed (T61I, G65R, G66S, G68R, T73K); also called CD4.B transfectant; source: HEK293, transfected (S/MAR episomal vector, mVenus co-expressed), on cells

[4] = molecular target: T4, swine (Microminipig) CD4.A expressed on transfected HEK293 cells (Sus scrofa, Microminipig, allele CD4.A, UniProt A0A0M3VH80, strain); experiment: as above; settings: partners not purified
T4 construct: CD4 allele CD4.A of the Microminipig; also called CD4.A transfectant; source: HEK293, transfected (S/MAR episomal vector, mVenus co-expressed), on cells

[5] = molecular target: T3, swine (Microminipig) CD4.B expressed on …; experiment: flow cytometry on cells; HEK293 transfected with CD4.A or CD4.B stained with biotinylated x1E10 and streptavidin PE-Cy7; settings: one partner purified
[6] = molecular target: T4, swine (Microminipig) CD4.A expressed on …; experiment: as above; settings: one partner purified

Measured: binding result

B1: anti-swine CD4.AB mAb x1E10 (antibody, V domains shown)
VH: DVQLQESGPGLVKPSQSLSLTCTVTGYSIISDYAWNWIRQFPGNKMEWMGYILYSGTTNYNPSLKSRISITRDTSKNQFFLQLNSVTTEDTATYYCARRTYYDYDYYGMDYWGQGTSVTVSS
VL: DVLMTQIPLSLPVSLGDQASISCRSSQTIVHSLGNTYLEWYLQKPGQSPKLLIYKVSNRFSGVPDRFIGSGSGTDFTLKITRVEAEDLGVYYCFQGSHVPWTFGGGTKLEIK
notes: IgG2a kappa; also called x1E10 (1C3-1E8); anti-CD4AB mAb; source: mouse hybridoma (BALB/c splenocytes fused with P3-X63-Ag8-U1), clone supernatant; purified mAb
binds: [1] | [2] | [3] | [4]

B2: biotinylated x1E10 mAb (antibody, V domains shown)
VH: B1 VH
VL: B1 VL
notes: as the heavy chain of m2; as the light chain of m2; IgG2a kappa; same antibody as m2 with a biotin label; also called x1E10 labeled with biotin; source: mouse hybridoma x1E10; biotinylated with Biotin Labeling Kit (Cosmo Bio)
binds: [5] | [6]
